Experimental data taken from PMC10440729 (Journal of the American Chemical Society, 2022).

Tests used:
[1] = test system: STZ-induced C57BL/6J diabetic mouse model; experiment: Blood glucose lowering in STZ-induced diabetic mice; format: in vivo; settings: 5 IU insulin/kg subcutaneous, blood glucose after 4 hours, n = 3
[2] = DOSY NMR diffusion coefficient / oligomerization state; format: physicochemical; settings: 4 °C, suggests a mixture of dimers and hexamers
[3] = reported value, cited from earlier work

Substance	duration of blood glucose response [1]	diffusion coefficient (D) [2]	reported D of dimers ([3]; insulin dimers)	reported D of hexamers ([3]; insulin hexamers)
2A-S-Ins: discrete 2A IEG polytriazole (all S) conjugated to N-terminus of insulin chain B by SPAAC	longer-lasting effects than Lantus	–	–	–
insulin	–	~ 1 × 10^−6 cm^2/s	1.22 × 10^−6 cm^2/s	0.87 × 10^−6 cm^2/s
